Assay results: paper PMC6437151

Legend:
[1] = molecular target: FBXW2 (UniProt Q9UKT8); experiment: co-transfection, HA IP, immunoblot; details: reference: wild type; sites S552
[2] = molecular target: FBXW2 (UniProt Q9UKT8); experiment: IP with FBXW2 antibody, immunoblot; details: reference: wild type; sites S552

- binding against the reference [1]: lost
- binding against the reference [2]: lost
Substance: β-catenin (from UniProt P35222) S552A
